Experimental data published in article PMC5971111 (Nature structural & molecular biology, 2018).

Experiments:
Experiment in all cases: […]
Sec15 = biological target: T1, Sec15 (S. cerevisiae, UniProt P22224 1-910)
T1 sequence: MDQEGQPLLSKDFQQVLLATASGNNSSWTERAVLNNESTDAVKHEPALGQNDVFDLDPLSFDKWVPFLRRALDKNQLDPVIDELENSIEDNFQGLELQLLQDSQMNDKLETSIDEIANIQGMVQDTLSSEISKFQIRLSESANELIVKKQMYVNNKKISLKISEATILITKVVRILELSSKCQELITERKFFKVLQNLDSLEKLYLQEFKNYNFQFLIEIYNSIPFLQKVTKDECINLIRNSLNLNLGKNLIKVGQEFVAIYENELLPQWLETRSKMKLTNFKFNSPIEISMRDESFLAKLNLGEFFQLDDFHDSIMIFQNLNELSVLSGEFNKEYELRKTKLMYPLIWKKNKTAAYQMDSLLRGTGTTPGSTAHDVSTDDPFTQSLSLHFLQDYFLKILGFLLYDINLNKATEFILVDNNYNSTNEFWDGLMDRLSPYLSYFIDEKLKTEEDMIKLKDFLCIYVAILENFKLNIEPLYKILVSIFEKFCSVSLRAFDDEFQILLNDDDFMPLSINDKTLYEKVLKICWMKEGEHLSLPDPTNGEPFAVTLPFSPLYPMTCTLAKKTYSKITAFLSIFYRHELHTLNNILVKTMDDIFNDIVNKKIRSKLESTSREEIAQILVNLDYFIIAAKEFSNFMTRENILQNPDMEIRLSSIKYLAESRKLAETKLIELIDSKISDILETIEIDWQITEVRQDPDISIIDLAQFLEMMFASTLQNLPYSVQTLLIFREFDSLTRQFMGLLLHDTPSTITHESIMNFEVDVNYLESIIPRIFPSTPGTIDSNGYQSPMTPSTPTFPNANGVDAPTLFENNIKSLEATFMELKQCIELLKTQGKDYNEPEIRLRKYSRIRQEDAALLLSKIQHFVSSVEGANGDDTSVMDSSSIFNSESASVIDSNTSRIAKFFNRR

Sec10 = biological target: T2, Sec10 (S. cerevisiae, UniProt Q06245 1-871)
T2 sequence: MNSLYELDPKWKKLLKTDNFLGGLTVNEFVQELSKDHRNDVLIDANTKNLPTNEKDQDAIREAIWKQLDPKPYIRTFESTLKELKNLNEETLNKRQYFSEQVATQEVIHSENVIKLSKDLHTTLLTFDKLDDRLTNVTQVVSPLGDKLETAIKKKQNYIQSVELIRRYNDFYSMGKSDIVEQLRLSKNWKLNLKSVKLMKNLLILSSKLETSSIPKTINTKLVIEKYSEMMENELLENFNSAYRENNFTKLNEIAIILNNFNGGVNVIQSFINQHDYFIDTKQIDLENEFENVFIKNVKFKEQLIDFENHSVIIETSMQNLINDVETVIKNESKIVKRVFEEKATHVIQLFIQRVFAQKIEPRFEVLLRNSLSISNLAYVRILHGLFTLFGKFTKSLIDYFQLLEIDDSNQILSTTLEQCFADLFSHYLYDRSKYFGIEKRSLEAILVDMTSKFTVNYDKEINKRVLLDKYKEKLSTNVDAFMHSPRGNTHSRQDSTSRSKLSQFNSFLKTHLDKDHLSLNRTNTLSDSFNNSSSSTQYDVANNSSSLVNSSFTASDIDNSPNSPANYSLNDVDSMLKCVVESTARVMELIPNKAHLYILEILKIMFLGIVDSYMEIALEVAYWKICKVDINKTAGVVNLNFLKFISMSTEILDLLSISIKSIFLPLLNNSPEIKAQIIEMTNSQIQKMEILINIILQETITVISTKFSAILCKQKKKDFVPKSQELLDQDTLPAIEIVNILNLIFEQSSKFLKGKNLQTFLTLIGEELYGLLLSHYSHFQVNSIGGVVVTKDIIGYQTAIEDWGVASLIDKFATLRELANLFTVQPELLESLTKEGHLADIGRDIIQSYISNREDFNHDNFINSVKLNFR

Sec8 = biological target: T3, Sec8 (S. cerevisiae, UniProt P32855 1-1065)
T3 sequence: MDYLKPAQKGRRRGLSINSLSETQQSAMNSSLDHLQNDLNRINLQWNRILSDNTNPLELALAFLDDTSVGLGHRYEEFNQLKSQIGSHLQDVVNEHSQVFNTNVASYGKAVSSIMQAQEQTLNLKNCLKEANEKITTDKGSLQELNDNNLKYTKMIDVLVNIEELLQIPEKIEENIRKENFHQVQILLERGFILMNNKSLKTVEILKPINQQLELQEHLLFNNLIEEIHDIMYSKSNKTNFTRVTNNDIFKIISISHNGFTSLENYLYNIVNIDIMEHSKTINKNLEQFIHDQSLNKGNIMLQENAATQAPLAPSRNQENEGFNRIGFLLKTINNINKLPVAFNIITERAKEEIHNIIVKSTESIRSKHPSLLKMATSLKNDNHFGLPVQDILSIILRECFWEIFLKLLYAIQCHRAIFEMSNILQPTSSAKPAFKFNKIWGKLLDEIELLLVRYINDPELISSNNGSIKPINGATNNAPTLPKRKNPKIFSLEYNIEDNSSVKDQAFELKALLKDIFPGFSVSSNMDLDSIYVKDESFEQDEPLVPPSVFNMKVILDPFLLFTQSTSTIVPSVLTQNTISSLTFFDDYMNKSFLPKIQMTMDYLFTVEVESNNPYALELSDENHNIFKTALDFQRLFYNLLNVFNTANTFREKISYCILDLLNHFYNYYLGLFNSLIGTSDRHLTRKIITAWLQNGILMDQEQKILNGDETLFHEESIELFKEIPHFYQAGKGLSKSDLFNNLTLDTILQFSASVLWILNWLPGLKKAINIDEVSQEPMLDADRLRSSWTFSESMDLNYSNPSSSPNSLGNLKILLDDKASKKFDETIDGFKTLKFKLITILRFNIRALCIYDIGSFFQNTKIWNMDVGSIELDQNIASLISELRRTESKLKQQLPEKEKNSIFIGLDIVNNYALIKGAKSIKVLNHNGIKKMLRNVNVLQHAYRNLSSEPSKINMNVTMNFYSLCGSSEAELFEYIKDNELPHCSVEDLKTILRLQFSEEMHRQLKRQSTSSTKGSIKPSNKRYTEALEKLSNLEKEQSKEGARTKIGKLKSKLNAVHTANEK

Measured: binding result

B1: Exo84 (natural protein)
chain: MVEFSLKKARNNWKHVKKSASSPAKQKTPPSPAKPKQKTKKNPYSDLKDPATSYTLPTINARERSRVATSMQRRLSIHNTNYAPPTLDYSMPLPDMPNMIVPNDNVDSSHNNSSFTTENESVSSKGPSNSLNLSTADLSLNDSSYNKVPARSAMRNTVNPSGSNDPFNNSTSLRKMLANPHFNAKDFVHDKLGNASAITIDKFTSNLTDLSIQVQEEVKLNINKSYNEIMTVNNDLNVAMLELKRVRANINDLNEVLDQCTKIAEKRLQLQDQIDQERQGNFNNVESHSNSPALLPPLKAGQNGNLMRRDRSSVLILEKFWDTELDQLFKNVEGAQKFINSTKGRHILMNSANWMELNTTTGKPLQMVQIFILNDLVLIADKSRDKQNDFIVSQCYPLKDVTVTQEEFSTKRLLFKFSNSNSSLYECRDADECSRLLDVIRKAKDDLCDIFHVEEENSKRIRESFRYLQSTQQTPGRENNRSPNKNKRRSMGGSITPGRNVTGAMDQYLLQNLTLSMHSRPRSRDMSSTAQRLKFLDEGVEEIDIELARLRFESAVETLLDIESQLEDLSERISDEELMLLNLISLKIEQRREAISSKLSQSILSSNEIVHLKSGTENMIKLGLPEQALDLFLQNRSNFIQDLILQIGSVDNPTNYLTQLAVIRFQTIKKTVEDFQDIFKELGAKISSILVDWCSDEVDNHFKLIDKQLLNDEMLSPGSIKSSRKQIDGLKAVGLDFVYKLDEFIKKNSDKIR
binds: all assays above
